According to patent EP4631972A1, “SITE-SPECIFIC COUPLED PEGYLATED INTERLEUKIN-2 MUTANT WITH RECEPTOR AFFINITY PREFERENCE AND USE THEREOF” (priority 2022, dated 2024):

Experiments:
IL-2βγ dual receptor = biological target: T1, IL-2βγ dual receptor (Homo sapiens, UniProt P14784+P31785); assay: STAT5 reporter gene assay, activation of IL-2βγ dual receptor in 293EC18/βγ/JAK3/STAT5 cells; assay type: cell-based
T1 construct: Uniprot P14784 1Met-551Val was constructed into plasmid pcDNA3.1(+); Uniprot P31785 1Met-551Thr was constructed into plasmid pcDNA3.1/zeo; expressed in transfected cells; host or cells: 293EC18 cells, transient co-transfection with pCMV/JAK3 and PGL4.52/STAT5RE
T1 sequence (P14784 27-551): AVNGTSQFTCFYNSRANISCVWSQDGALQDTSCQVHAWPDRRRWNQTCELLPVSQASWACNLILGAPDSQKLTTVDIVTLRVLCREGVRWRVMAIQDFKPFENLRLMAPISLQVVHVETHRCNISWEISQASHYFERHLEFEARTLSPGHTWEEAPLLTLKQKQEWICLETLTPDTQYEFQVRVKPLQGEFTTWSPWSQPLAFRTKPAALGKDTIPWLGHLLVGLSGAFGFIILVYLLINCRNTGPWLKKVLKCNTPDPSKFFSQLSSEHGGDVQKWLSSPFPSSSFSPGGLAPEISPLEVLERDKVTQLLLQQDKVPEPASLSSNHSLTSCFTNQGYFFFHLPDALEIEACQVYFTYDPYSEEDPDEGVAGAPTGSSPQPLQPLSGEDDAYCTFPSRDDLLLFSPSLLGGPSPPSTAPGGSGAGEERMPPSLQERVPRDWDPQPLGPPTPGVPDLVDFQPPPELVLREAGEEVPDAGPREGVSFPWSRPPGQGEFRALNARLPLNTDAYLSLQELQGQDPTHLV
T1 sequence (P31785 23-369): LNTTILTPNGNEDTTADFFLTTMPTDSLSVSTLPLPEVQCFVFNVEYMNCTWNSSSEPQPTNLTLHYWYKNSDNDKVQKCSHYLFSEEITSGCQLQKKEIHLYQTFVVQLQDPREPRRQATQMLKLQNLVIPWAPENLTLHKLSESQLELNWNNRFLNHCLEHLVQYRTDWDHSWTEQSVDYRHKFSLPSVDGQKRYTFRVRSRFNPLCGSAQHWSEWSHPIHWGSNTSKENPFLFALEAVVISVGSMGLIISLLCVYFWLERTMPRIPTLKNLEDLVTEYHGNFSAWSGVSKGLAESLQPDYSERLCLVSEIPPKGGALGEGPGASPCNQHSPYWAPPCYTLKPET
Procedure: (§1) Since the binding of IL-2 to the β and γ subunits of its receptor induces STAT5 phosphorylation, which subsequently leads to dimerization and translocation into the nucleus to promote target gene transcription, this example evaluates the ability of the mutant IL-2 polypeptides to induce signaling through the IL-2 receptor by measuring STAT5 phosphorylation.
Adherent 293EC18 cells were cultured to about 90% confluence using conventional methods. After trypsin digestion, the cells were resuspended in cell culture medium to 4×10^5 cells/ml and 50 µl/well were added to two 96-well cell culture plates. After incubation at 37°C for 48 h, the supernatant was aspirated and fresh culture medium was added. According to the manufacturer's method, four plasmids, pcDNA3.1(+)/CD122 (constructed by Nanjing Novoacine Biotechnology Co., Ltd, Uniprot P14784 1Met-551Val was constructed into plasmid pcDNA3.1(+)), pcDNA3.1/puro/CD132 (constructed by Nanjing Novoacine Biotechnology Co., Ltd, Uniprot P31785 1Met-551Thr was constructed into plasmid pcDNA3.1/zeo), pCMV/JAK3 (Sino Biological), and PGL4.52/STAT5RE (Promega) were transiently transfected into 293EC18 cells using a cationic transfection reagent (ExFect Transfection Reagent, Vazyme). The obtained cells were named 293EC18/βγ/JAK3/STAT5 cells. Alternatively, five plasmids, pcDNA3.1/zeo/CD25 (constructed by Nanjing Novoacine Biotechnology Co., Ltd, Uniprot P01589 1Met-551Ile constructed into plasmid pcDNA3.1/zeo), pcDNA3.1(+)/CD122 (constructed by Nanjing Novoacine Biotechnology Co., Ltd, Uniprot P14784 1Met-551Val constructed into plasmid pcDNA3.1(+)), pcDNA3.1/puro/CD132 (constructed by Nanjing Novoacine Biotechnology Co., Ltd, UniprotP31785 1Met-551Thr constructed into plasmid pcDNA3.1/zeo), pCMV/JAK3 (Sino Biological), and PGL4.52/STAT5RE (Promega) were transiently transferred into 293EC18 cells, and the obtained cells were named 293EC18/αβγ/JAK3/STAT5 cells. The transfected cells were incubated at 37°C and 5% CO2 for another 6 h.
Each IL2 mutant was diluted 4-fold in a gradient manner using PBS buffer, with a total of 11 dilutions and a starting concentration of 65.2 nM. In the above cell culture plates, 50 µl/well of each of the serially diluted IL2 mutant samples was added in duplicate. Then, the cell culture plate was placed in an incubator at 37°C and 5% CO2 for overnight culture. The cell culture plates were kept at room temperature for 20 ± 5 minutes to equilibrate the plates to room temperature. Bio-Lite Luciferase Assay System reagents that have been mixed and equilibrated to room temperature were added to the cell culture plates to be tested at 100 µl/well, placed on a microplate shaker at 450 rpm to mix for 2 minutes, then allowed to stand at room temperature for 3 minutes, and the chemiluminescence value was detected with an enzyme plate reader.
(§2) The logarithm of the final concentration of each IL-2 mutant sample was used as the X-axis, and the chemiluminescence detection results were used as the Y-axis for plotting. Data were analyzed using the four-parameter logistic regression model in GraphPad Prism 9. Table 2 EC50 values for the activation of the IL-2αβγ triple receptor by PEG-IL-2 mutants as determined by a reporter gene assay.
(§3) According to the method of Example 3, each polyethylene glycol-modified mutant obtained in this example was assessed for the binding preference to the IL2 receptors by a reporter assay. Table 4 EC50 values for the activation of the IL-2αβγ triple receptor by PEG-IL-2 mutants as determined by a reporter gene assay.
Referring to Example 3, the phosphorylation of STAT5 was used to evaluate the ability of the PEG-modified IL-2 mutants having a non-natural amino acid mutation prepared in Example 14 to induce signal transduction via the IL-2 receptor. […]

IL-2αβγ triple receptor = biological target: T2, IL-2αβγ triple receptor (Homo sapiens, UniProt P01589+P14784+P31785); assay: STAT5 reporter gene assay, activation of IL-2αβγ triple receptor in 293EC18/αβγ/JAK3/STAT5 cells; assay type: cell-based; conditions: Example 3, Table 2 and Figure 3
T2 construct: Uniprot P01589 1Met-551Ile constructed into plasmid pcDNA3.1/zeo; Uniprot P14784 1Met-551Val constructed into plasmid pcDNA3.1(+); Uniprot P31785 1Met-551Thr was constructed into plasmid pcDNA3.1/zeo; expressed in transfected cells; host or cells: 293EC18 cells, transient co-transfection with pCMV/JAK3 and PGL4.52/STAT5RE
T2 sequence (P01589 22-272): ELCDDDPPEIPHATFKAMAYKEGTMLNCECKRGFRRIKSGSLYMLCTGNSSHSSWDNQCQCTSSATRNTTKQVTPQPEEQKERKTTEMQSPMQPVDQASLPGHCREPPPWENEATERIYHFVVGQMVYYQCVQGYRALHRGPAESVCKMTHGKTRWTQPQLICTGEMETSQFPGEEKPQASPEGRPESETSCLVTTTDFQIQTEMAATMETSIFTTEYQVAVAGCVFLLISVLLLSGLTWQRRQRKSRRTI
T2 sequence (P14784 27-551): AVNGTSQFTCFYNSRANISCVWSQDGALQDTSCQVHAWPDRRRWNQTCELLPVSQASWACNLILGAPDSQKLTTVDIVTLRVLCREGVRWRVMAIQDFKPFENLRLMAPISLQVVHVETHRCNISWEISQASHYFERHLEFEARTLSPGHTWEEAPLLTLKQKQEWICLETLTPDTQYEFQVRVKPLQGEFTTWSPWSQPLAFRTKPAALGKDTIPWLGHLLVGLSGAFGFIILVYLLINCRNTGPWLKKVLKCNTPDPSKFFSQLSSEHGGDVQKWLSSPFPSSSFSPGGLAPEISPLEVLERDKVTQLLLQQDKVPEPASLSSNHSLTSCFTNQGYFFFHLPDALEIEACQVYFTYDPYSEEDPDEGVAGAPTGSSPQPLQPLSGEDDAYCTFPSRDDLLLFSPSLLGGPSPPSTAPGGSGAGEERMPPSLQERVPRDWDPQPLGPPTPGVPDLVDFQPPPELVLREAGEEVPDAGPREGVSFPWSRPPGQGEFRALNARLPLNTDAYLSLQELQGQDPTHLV
T2 sequence (P31785 23-369): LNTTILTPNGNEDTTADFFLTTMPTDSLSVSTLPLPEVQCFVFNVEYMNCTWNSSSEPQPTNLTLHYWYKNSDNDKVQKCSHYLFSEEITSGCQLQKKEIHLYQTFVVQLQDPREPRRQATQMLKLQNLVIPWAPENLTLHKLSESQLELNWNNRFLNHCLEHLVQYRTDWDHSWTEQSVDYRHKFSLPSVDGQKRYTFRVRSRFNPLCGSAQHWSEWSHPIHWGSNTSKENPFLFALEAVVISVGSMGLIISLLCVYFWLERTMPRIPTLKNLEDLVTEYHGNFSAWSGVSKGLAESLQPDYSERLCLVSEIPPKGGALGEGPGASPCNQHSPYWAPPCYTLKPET
Procedure: as §1
Adherent 293EC18 cells were cultured to about 90% confluence using conventional methods. After trypsin digestion, the cells were resuspended in cell culture medium to 4×10^5 cells/ml and 50 µl/well were added to two 96-well cell culture plates. After incubation at 37°C for 48 h, the supernatant was aspirated and fresh culture medium was added. […]
Each IL2 mutant was diluted 4-fold in a gradient manner using PBS buffer, with a total of 11 dilutions and a starting concentration of 65.2 nM. […] Bio-Lite Luciferase Assay System reagents that have been mixed and equilibrated to room temperature were added to the cell culture plates to be tested at 100 µl/well, placed on a microplate shaker at 450 rpm to mix for 2 minutes, then allowed to stand at room temperature for 3 minutes, and the chemiluminescence value was detected with an enzyme plate reader.
as §2
as §3, with “gene assay. […]” for “gene assay.”

activation effect on the IL-2Rβγ dual receptor compared with control IL-2 N88R (IL-2βγ dual receptor; Figure 1, concentration of 65.2 nM): lower activation effects
activation effect on / affinity to IL-2Rβγ dual receptor compared with control IL-2 N88R (IL-2βγ dual receptor; Figure 2, all concentrations): further reduced the affinity to IL-2Rβγ
activation of the IL-2Rαβγ triple receptor compared with the control IL2-N88R (IL-2αβγ triple receptor): even stronger activation
B1: 80k-1PEG-IL2-N88R-N33C: IL-2 mutant N88R, N33C with one 80k PEG conjugated to cysteine 33 (conjugate)
chain: APTSSSTKKTQLQLEHLLLDLQMILNGINNYKC(PEG 80 kDa)PKLTRMLTFKFYMPKKATELKHLQCLEEELKPLEEVLNLAQSKNFHLRPRDLISRINVIVLELKGSETTFMCEYADETATIVEFLNRWITFSQSIISTLT
